Laboratory results reported in patent EP4431526A1 (Emfret Analytics GmbH & Co. KG, dated 2024).
Blank lines part the entries; values can stand above or below the binder they belong to.

Key:
[1] = molecular target: human GPVI, membrane expressed on platelets (human) (UniProt Q9HCN6); assay: flow cytometry ex vivo, hGP6^tg/tg platelets, competition with Emf3-FITC, 1 h after 4 mg/kg i.v.
[2] = molecular target: human GPVI, membrane expressed on platelets (human) (UniProt Q9HCN6); assay: cell-based or functional assay
[3] = molecular target: human GPVI, membrane expressed on platelets (human) (UniProt Q9HCN6); assay: flow cytometry ex vivo, hGP6^tg/tg platelets, competition with Emf3-FITC, 48 h after 4 mg/kg i.v.
[4] = molecular target: T1, human GPVI-Fc fusion protein (human, UniProt Q9HCN6 21-267, limits assumed); assay: method not stated at this place (BLI elsewhere); target printed as 'human GPVI'
T1 construct: also called human GPVI protein antigen
T1 sequence (looked up): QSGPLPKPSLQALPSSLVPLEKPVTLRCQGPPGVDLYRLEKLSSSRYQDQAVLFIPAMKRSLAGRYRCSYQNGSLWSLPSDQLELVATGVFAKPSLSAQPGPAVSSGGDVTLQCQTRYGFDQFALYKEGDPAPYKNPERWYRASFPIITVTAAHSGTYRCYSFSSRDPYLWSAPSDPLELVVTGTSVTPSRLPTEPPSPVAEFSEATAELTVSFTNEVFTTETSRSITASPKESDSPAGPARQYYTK

[5] = molecular target: human GPVI, membrane expressed on platelets (human) (UniProt Q9HCN6); assay: flow cytometry ex vivo, hGP6^tg/tg platelets, competition with Emf3-FITC, 72 h after 4 mg/kg i.v.
[6] = molecular target: human GPVI, membrane expressed on platelets (human) (UniProt Q9HCN6); assay: flow cytometry ex vivo, hGP6^tg/tg platelets, competition with Emf3-FITC, 120 h after 4 mg/kg i.v.
[7] = molecular target: human GPVI, membrane expressed on platelets (human) (UniProt Q9HCN6); assay: flow cytometry ex vivo, hGP6^tg/tg platelets, competition with Emf3-FITC, 96 h after 4 mg/kg i.v.
[8] = molecular target: human GPVI, membrane expressed on platelets (human) (UniProt Q9HCN6); assay: flow cytometry ex vivo, hGP6^tg/tg platelets, 48 h after 4 mg/kg i.v.
[9] = molecular target: human GPVI, membrane expressed on platelets (human) (UniProt Q9HCN6); assay: flow cytometry ex vivo, hGP6^tg/tg platelets, competition with Emf3-FITC, 24 h after 4 mg/kg i.v.
[10] = molecular target: human GPVI, membrane expressed on platelets (human) (UniProt Q9HCN6); assay: flow cytometry ex vivo, hGP6^tg/tg platelets, 72 h after 4 mg/kg i.v.
[11] = molecular target: human GPVI, membrane expressed on platelets (human) (UniProt Q9HCN6); assay: flow cytometry, hGP6^tg/tg platelets, anti-human IgG-Fab detection, EMA601 at 0.1 ug/mL
[12] = molecular target: human GPVI, membrane expressed on platelets (human) (UniProt Q9HCN6); assay: flow cytometry, hGP6^tg/tg platelets, anti-human IgG-Fab detection, EMA601 at 0.2 ug/mL
[13] = molecular target: T1, human GPVI-Fc fusion protein; assay: ratio of KD values (0.46 nM against 0.195 nM)
[14] = molecular target: human GPVI, membrane expressed on platelets (human) (UniProt Q9HCN6); assay: flow cytometry ex vivo, hGP6^tg/tg platelets, anti-human IgG-Fab-FITC, 1 h after 4 mg/kg i.v.
[15] = molecular target: T1, human GPVI-Fc fusion protein; assay: BLI (Octet), GPVI-Fc on biosensor, 1:1 fit

% of the binding epitopes on GPVI occupied [1]: 90% | thrombus volume on collagen under flow (1000 s^-1), human blood [2]: 75 % reduction | % of the binding epitopes on GPVI occupied [3]: 50% | Kd [4]: 0.46 nM | % of the binding epitopes on GPVI occupied [5]: 36% | % of the binding epitopes on GPVI occupied [6]: 13% | % of the binding epitopes on GPVI occupied [7]: 19% | receptor occupancy [8]: > 50% | % of the binding epitopes on GPVI occupied [9]: 76% | receptor occupancy [10]: > 35%
B1: Emf6.1^Fab (Fab, V domains shown)
VH: QVQLKESGPGLVQPSQSLSITCTVSGFSLTSYGVTWVRQPPGKGLEWLGVIWGDGSTNYHSGLRSRLSISRDDSKSQVFLKLNSLQTDDTATYYCAKPIYYDFDDDAMDYWGQGTSVTVSS
VL: DIVMTQSQKFMSTSVGDRVSVTCKASQNVGTYVAWFQQKPGQSPKTLIYSASYRCSGVPDRFTGSGSGTDFTLTISNVQSDDLAEYFCHQYNNYPLTFGAGTKLELR
notes: also called Fab fragments of Emf6.1

% of the epitopes occupied compared to the highest tested concentration (50 µg/mL) [11]: 57.3% | % of the epitopes occupied compared to the highest tested concentration (50 µg/mL) [12]: 86.2% | fold increase of affinity against Emf6.1^Fab [13]: ~2.3 fold | collagen-induced aggregation of washed human platelets [2]: 50 % reduction | potency to inhibit GPVI function in human and hGP6^tg/tg platelets in vitro, against ACT017 [2]: 10 fold | fold amount of bound Fab against ACT017 [14]: 1.8 fold | Kd [15]: 0.195 nM | koff [15]: 0.000123 s⁻¹ | kon [15]: 628000 M⁻¹ s⁻¹
B2: HC1 LC2 humanized Fab (EMA601) (Fab, V domains shown)
VH: QVQLQESGPGLVKPSETLSLTCTASGFSLTSYGVTWIRQPPGKGLEWIGVIWGDGSTNYHSGLRSRVTISVDTSKSQFSLKLSSVTAADTAVYYCAKPIYYDFDDDAMDYWGQGTLVTVSS
VL: DIQMTQSPSSLSASVGDRVTITCKASQNVGTYVAWFQQRPGKAPKSLIYSASYRCSGVPSKFSGSGSGTDFTLTINSLQPEDFATYYCHQYNNYPLTFGQGTKVEIKR
notes: also called EMF601; VH1:VL2
